The target in assay [1] is PHOX2B Q46K homeodomain (human). Kind of assay: native gel or EMSA; quantitative EMSA, purified HD protein with 34 nM fluorescent Q50 P3 probe (TAAT-TAG-ATTA); 20 min at room temperature, 10 mM Tris pH 7.5, 50 mM NaCl, 1 mM MgCl2, 4% glycerol, 0.5 mM DTT, 0.5 mM EDTA, poly(dI-dC), BSA; Tau = 4[P2D][D]/[PD]^2, the factor by which the first HD on the DNA helps the second to bind (monomer on DNA to dimer on DNA). For orientation: Mobility shift assays separate free from complexed probe on a gel.

Assay [2] deals with PITX3 homeodomain (human). Kind of assay: native gel or EMSA; quantitative EMSA, purified HD protein with 34 nM fluorescent K50 P3 probe (TAAT-CCG-ATTA); 20 min at room temperature, 10 mM Tris pH 7.5, 50 mM NaCl, 1 mM MgCl2, 4% glycerol, 0.5 mM DTT, 0.5 mM EDTA, poly(dI-dC), BSA; Tau = 4[P2D][D]/[PD]^2 (monomer on DNA to dimer on DNA).
For assay [3], the target named is ALX4 homeodomain (amino acids 209-274) (human) (UniProt Q9H161). Kind of assay: native gel or EMSA; quantitative EMSA, purified HD protein with 34 nM fluorescent P4 probe (a single G added to the spacer of the P3 probe); same buffer; Tau = 4[P2D][D]/[PD]^2 (monomer on DNA to dimer on DNA).
Assay [4] addresses PHOX2B Q46R homeodomain (human). Description: native gel or EMSA; quantitative EMSA, purified HD protein with 34 nM fluorescent Q50 P3 probe (TAAT-TAG-ATTA); 20 min at room temperature, 10 mM Tris pH 7.5, 50 mM NaCl, 1 mM MgCl2, 4% glycerol, 0.5 mM DTT, 0.5 mM EDTA, poly(dI-dC), BSA; Tau = 4[P2D][D]/[PD]^2, the factor by which the first HD on the DNA helps the second to bind (monomer on DNA to dimer on DNA).

In assay [5] the target is OTP homeodomain (amino acids 99-164) (human) (UniProt Q5XKR4). Description: native gel or EMSA; quantitative EMSA, purified HD protein with 34 nM fluorescent P4 probe (a single G added to the spacer of the P3 probe); same buffer; Tau = 4[P2D][D]/[PD]^2 (monomer on DNA to dimer on DNA).

Substance “PHOX2B Q46K homeodomain (domain or fragment)” returned a Tau (cooperativity factor) with P3 DNA in assay [1] of 1.4.

For PITX3 homeodomain (domain or fragment), the Tau (cooperativity factor) with P3 DNA in assay [2] came out at 0.157.

The substance “ALX4 homeodomain (amino acids 209-274) (from UniProt Q9H161 209-274) (domain or fragment)” came in with a Tau (cooperativity factor) with P4 DNA in assay [3] of 0.792.

For “PHOX2B Q46R homeodomain (domain or fragment)”, in assay [4], the Tau (cooperativity factor) with P3 DNA turned out to be 1.27.

As for “OTP homeodomain (amino acids 99-164) (from UniProt Q5XKR4 99-164) (domain or fragment)”, in assay [5], the Tau (cooperativity factor) with P4 DNA amounted to 0.29.

For the origin of these results see article doi:10.1101/2025.10.29.685385.
